Reference: a protein production outcome set (Wang et al. 2014)

Test: label from the status in PepcDB records

Row | Sequence | protein production
1 | MTLSPNLRGALWMLASAVGFTVMTTLIKFLGDDYPAALQTFYRQLAGVLVLLPLIARDWRGAFRTTRPGIVIFRSSAGVLALIMSFYAYQKLPLADANALSFTRTLWLVPLAGLVLREPIGPRRISAALVGFVGVLIMLQPGAGGVEAWLGWPQLCALGAAFLFALTITGMKVMTRDHTPFVLLVYAAVLGLVFAIPPALFVWRWPTWPDLGLLAAMGVIGTLTQGAYIKGMEAGEAAVMAPVDYTRLVFAVIVGFLLFQEVPRTATVVGAVIVVGSTLFISWREHQLAKQAAAEPT | failed
2 | MTLTEQPQRIAILHSLYLEYFLALGTPPIASAGASTGDAMKALGEWETLKPYAGTAKIIDLGSARDLNLEAILGANPDVIVTFKGQGNLDKIYEQLEQIAPVILVDFSAPWQEQILACAEIVNKEADAQKLIKEIEDSVQSAKEKLSRLEHHHHHH | failed
3 | MTLTLNRQLLTSRQILVAFSGGLDSTVLLHQLVQWRTENPGVALRAIHVHHGLSANADAWVTHCENVCQQWQVPLVVERVQLAQEGLGIEAQARQARYQAFARTLLPGEVLVTAQHLDDQCETFLLALKRGSGPAGLSAMAEVSEFAGTRLIRPLLARTRGELVQWARQYDLRWIEDESNQDDSYDRNFLRLRVVPLLQQRWPHFAEATARSAALCAEQESLLDELLADDLAHCQSPQGTLQIVPMLAMSDARRAAIIRRWLAGQNAPMPSRDALVRIWQEVALAREDASPCLRLGAFEIRRYQSQLWWIKSVTGQSENIVPWQTWLQPLELPAGLGSVQLNAGGDIRPPRADEAVSVRFKAPGLLHIVGRNGGRKLKKIWQELGVPPWLRDTTPLLFYGETLIAAAGVFVTQEGVAEGENGVSFVWQKTLS | not failed
4 | MTLTQLEIFALVAEMQGFTAAAARLGISQSGVSHAVRELERELGVELLQRRQGRVELTDIGRQLLPRASGMLGLAEAMRQEAADARGLRRGTLRIGSFGPTSSMRLLPALLARYRQQYPGIEVHIDEGPDEQVLQWLLERRVDIAFAVLPDPRFVCCPLVEDQMVAVLPAGHRLADRPRVTLAELCGEPFALSGAGSAELVMRLFQAARLQPNIRYRCGQLLSTLDTVARGDAVAIVAELSLPSRPHAEGYVGKPLQPAVRRQVGLALLDGDQASPAARAFLQIADRLRIEGGLAGLNARENGAA | not failed
5 | MTLVDDRLLESKMTKVEQARAWSPRVISKFETLIKSADDHSLYRVNPLAFARDRAIAEAEAIDLFLHAARCGLFDMSWDVLCPQSGMVLDSFGALRTLKTHYVCGLCDVSGDTDLDDFIEVTFSVSPKLRRLPYHDPETLPVEDFHWKLHFGHDGRLPGQDVRFLDVLRGFVRGMTFLPPGTTTVLRADLGPGALSGVNVQTQAAFAVPISGDRGLAPTLLKIDYDGKRFLPAMPAVPPGPIVIEVANRGPVRGSLLVINWPPELVALTTKPTLDFDPYVSGGALLARQTFRQLFRSERVDEKEGLGIRQITFLFTDLKGSTAMYERLGDLNAYALVREHFALVNAAVQQHSGAVVKTIGDAVMAVFSQPSDAISAALHVFEEIDRFNGDHDGPGIILKIGAHCGPSIAVTLNDNLDYFGQTVNVAARVQSLAEAGQICISEALYSAPGVREMLAGHRVVAFDAPLRGVQGDATVYRIMRE | failed
6 | MTMETVESQHDGSITASLTESKSAHVQTQTGQNSIPALAQVAAIAETDESAESGGVIDSHKRREILSRRPSYRKILNELSSDVPGVPKIEEERSEEEGTPPSIATMAVPTSIYQTSTGQYIAIAQGGTIQISNPGSDGVQGLQALTMTNSGAPPPGATIVQYAAQSADGTQQFFVPGSQVVVQAATGDMPTYQIRAPTAALPQGVVMAASPGSLHSPQQLAEEATRKRELRLMKNREAAKECRRRKKE | not failed
7 | MTMFGKIFSKKTPKTDIKSNGEALNASEIEQFIKDTLSHYISDNFPQGVLAVCQQLSITQKKKITIKLLMPFVCQGELDLLAQTLSENLARTVNFEIDLAIKPVRQFSLGNDKNKAGQEGMLQGKVANIIAIASGKGGVGKSTTTVNLAYALMCEGARVGILDADIYGPSIPSMLGLKNEKPSSSDGKLMTPVDAKGLSAMSIGFLVDEADATVWRGPMASSAFNQLLNETDWPELDYLLIDMPPGTGDIQLTLAQKVPVAAAVIVTTPQDIALIDAVKGIAMFDKVKVPVLGIVENMSYHLCENCGHKSHIFGEAGGEHMAEDHETKLLGQLPLDITIRQDADFGESDIIENSAGEIANHYRKIARNVSAQLFLQCDTASPLTATVAHKALEHHHHHH | not failed
8 | MTMQDILYYIHTYGLIVLFLIVVGEYCVPAMPTGIVMPAAGIIAGQAHKGIIKVMLISLIAGLVGSIILYLLGYFVGSTLLEKIKIKHPKIEDKLEKTEKILEKHSFLGIFICRLIPIIRTYVSLICGTVKVNFFKFIIFSIPGIFCWNFTGIVVGYFFGGKIRF | failed
9 | MTMREYMLGNVAIARGLLEGGVQVIAGYPGTPSSEIIDTLASREDRDYHIEWSVNEKVAMEVAVGAAWTGVRSVVTMKHVGLNVAADPFMTLAYAGTKGGLIAIVADDPSCHSSQNEQDTRRYAQFALVPCFDPSTPQEAKDMLPYAFEFSEKFEIPVIFRPTTRISHGKSDIELGEIPAEKAVPHFEKLLDRWVMLPKNARPRHTHILSIQQAMEDELAESPWNSLEIKPGAKMGVIGSGIASVYAKEALQELGLEASFLKIGTYPVPKKLILELLSTVDTVLIFEELEPVVEEQVRILAQEAGLEVSVLGKEGGFVSREGELDVSAFLEALRKAFDLDIEPDSGKVPLELAPRPPSLCAGCSHRATFYSMKKVFGKDAIYPSDIGCYTLGIQSGTVETTLCMGSSISIASGLYHAGEKRPICCSIGDSTFFHTGMNSLLNAVFNKANITVTILDNRITAMTGHQPNPGVGFTVTGEPTVEVSLAELCKAMGAGFVTVVDPYNLEETQEAFKAAKEFEGTAVVIAKQPCVISGKRAGIKRVPYIVDPEKCEGCKQCVKFGCPAIEFDEENKCAVITSLCSGCGVCAQICKFDAIREVKR | failed
10 | MTNAEAVTVTNKQIIFPDYVTGFPKESDLKITTTTIDLRLPEGSTSVLVKNLYLSCDPYMRICMGKPDPLSSSLVPPYKTGVPIIGLGVSKVIDSGHPDYKKGDLLWGLVGWEEYSVITLTTYSHFKIEHTDVPLSYYTGLLGMPGMTAYAGFYEVCSPKKGETVFVSAASGAVGQLVGQFAKLMGCYVVGSAGSKEKVYLLKTKFGFDDAFNYKEEKDFSAALKRYFPEGIDIYFENVGGKMLDAVLINMKLHGRVAVCGMISQYNLVDPEGVHNLPTILYKRIQLQGFGVCDFYDKYPKFLDFVLPYIREGKITYVEDIAEGFESGPSALLGLFEGKNVGKQLFVVARE | failed
11 | MTNAISNFTIYAFVALGGACGASLRFYISQLVLNWLGKGFPFATLMVNIIGSFTMGLLYQLIEHEILNVSVHRTLIGIGFLGAFTTFSTFSLDSLLLLQQGDVLKAAINILLNVSLCIAAAALGMFMVTTLTK | failed
12 | MTNFTQSINFPGSLPLTRNLLAAACFFAMTQASAAGFISDVKQISDQEVRSGEGYYRADGKWLVYQAEVAGENPFYQIYLKNIASGEVQQVSPGIGKTTCSWVHPIQEKVLFSSTHEDPEAKAKMTTEIEQRKSGQRRSYAWDYDEFYDIYETDFAGGNIRNLTHTKGYDAEASWSPDGRLIAFASNRRAYSEPLSEAETVLFSNDPSSMIDIYIMDADGSNVKRLTHTNSYDGGPFFSPDGKRIVWRRFSENGQEAEIFTMNTDGSDQKQITRLNKMSWAPFYHPSNQYIIFATNVHGHRNFELYIVDIDGKKEPVRVTDEEGFDGLPVFTPDGQYITWTSDRTPDHKGRLFHGKWDHKKALESLGLE | failed
13 | MTNHQHPQTTTQWIDLIANSELPAITSTARMLDKFSNDDKSSLPKLSEAILHDQGLSSCLLKVANNIQHISINKVTTVSRASVVLGIQSVKNICLTAKLVSSLLASKSLDINVYEQLTQLMANSFYAGMLAKMMVPNYSEEIQEEVYLAAMLYRIGESAFWSAGGDVAKKLANYEAKSPQDFNQYCRKEMGTNFSELSKGLAGTWNLSDLLIKALDQPTTRTDEVKVIYFADKLSAIIAKPEGCEEDYHKLLKEIAYIVGISVRQLTVRIEHTREQAEKLLSSYGAEILTERINSLPTAEDFKSLGGDFDTREVVSKDKALLNGFMKLTKLIQNSKDFNEYLQLTLESLALTFAFDRSSFLMLVDDRARVKSRLVVNKNAQDDASKINIDIKHSDNVIARVISTDTAALINDHQEIRWRDLVTEEISEVIVEGAIAFVPVKIGGKAIGVICLQLLSPDQKIETQDFQQICAFIDHLNMCLTMIKYS | failed
14 | MTNITPEAKNTNRHSVLLVEKEGRNLARKYHQVLVEELTIIKQGYKTFSSKNIAIPSGFWYHYDTSLTDSYENAKSECFYIPNDNQNYPLQEMRRDCKEYERVEKQVVFKNNKNNELNELPKYLNNAKKY | failed
15 | MTNLEAKENNLIKDLASKQRVAIAYSGGIDSTYLLKVAVDELGKDNVLAMVVNSELFLDDEYNKALELAKDLGANAMGVSMSELADERIAANTPESWYYSKQLLYRTIKKAAAEKGFDIVLDGMIMDDNADFRPGMKARTEEGIVSSLQDADLYKSEIRELAKDRGISNWNKVASC | not failed
16 | MTNMKTHAREWAALDKSACFLFCSGDNDVAQQLGHAIGDLGLLTQELPEPEQLARRLADIDPQVVFLDFTGGQADPGKLLLAADLARVLARVAPAVPRVAVGYLAQPDGAIAALRAGVSDFVDPSVSPDEVHGVVQRLVSNRRIGGGSGGEHRSVLILGARPGVGASTLAVHMAGLTQERMAQAALARQGAVAGKPARSAEVMAAQLPLSDRVGVLDLGWPIGDCLLYLNISSDFDFAEAARNLSRLDGTLLNSAMAHTASGVSALALPREVEQVRALSPNDSLLLFERLRQHYGTLVTDAGGLANPEFVAKLARASHETWLVTDQSVSALVSLAGAVQELEQFHVEKSALRLVVNRYDERYGMSAAQIAERFGLELAGTLPDRTLSLMVCTNQGRLLHEQAERDIYVRAVQTLVDRLLAGSEAPRARHNSWLANWLPGVHRLTNVVESLEHHHHHH | failed
17 | MTNNEYTDISNKETDVSPANIEQLKSVSMIWFVPFVALLIGAWMIYYQLSNEGPVITIAFDSAEGMEIGKTKIKSYNVDIGEVSNIVLNENADGVIVTARMTKNAEKLLNKNSDFWLVSPEISHTGISGLSTLISGVYIEFYPSSIHEEEVDELTSEFIALKDPPVTPPGAPGLHLTLNSNDQFAYSKGDPIIYKGLTVGQFEHIHFNFEERVVYYNAFIKAPYHQLVTTNTKFWDVSGLRMDLTADGLSIQTGNIETMLTNGVTFDVPKGMENGEEITERSYFDIYANYKEADDERYKYSVEYIVLVSNTIRGLSVGAPVEYRGVLIGHVKSINLLAQRNSDRPQIFDEDIKIPILISLQPGRVGLPDNEMGVSLMKQQHQLWIKDGLRASLKTGSLLTGSLFIDFQHYSDLNNEEENTQRTDFENSQYGEYTIIPSVDDEFSQITAKASQFIDNLNALPLEKISGNTNELITEFTQTAKSFQSVSDNLSGVLDGVNQQQLTQELKTTLQSYTKLSKDLSAGSKGYEDLRQTLSALTKVMNELQPLLNQLKHQPNGLIFESGKVDAIEPKKYTPNKKAE | failed
18 | MTNTTYVQEYHAIVEVLSKYNEGGKKADSTIMRPAFSSQATIFGVDVDNKLTGGPIQGLFDVIDNVFHPSPEAKAAIARIDIVGTAASARIDTDDISGFRFTDFFNLLKVEGKWTVVSKIYHTHPSA | not failed
19 | MTNVISYNNDKGLLAYIQFLADRALKPSNGNTDPVFDFEDALDQTEMAQLAVDELKKIPEVNTLFAERWLPAPFNLDDLAKLPEGTLGHVYAIEMKARGFDPYFYKKVPVVDDISYLKMLWRSTHDIYHVVAGFDTDGIGEIGLQAFVLAQTPIPISVMLVSFGMVMTSLYQPAKFQDLMAEIARGYSLGSHTPRKLIAQKWDQFWDVPVIEIRECLGMNTVKQRERA | failed
20 | MTPDDQLSAFLGEQPATSRADLFTAVVMQKIERRAFLRDVAAAGGWAAVVGLVAWACAPVLNVLIGALAPGLAPAAAALALVAATLLVSSPSVRRRLGLAAV | failed
